In article PMC2172957 one finds reduction of C-Ag20z8 labeling data, which are given here for one substance.

This test concerns the target neuronal receptor for agrin (mouse (endogenous in cortical neurons)). The experiment in a line: immunostaining of cells or tissue.

Regarding “rC-Ag_(y4z8), soluble 95-kD COOH-terminal fragment of rat agrin (domain or fragment)”, the reduction of C-Ag20z8 labeling at a 1:1 molar ratio of C-Ag20z8 to rC-Ag (y4z8) was 30%.
